Reference: the DeepSol protein solubility set

test: soluble on expression in E. coli; label from the status in PepcDB or PDB records

Soluble on expression in E. coli, not soluble:
MGSDKIHHHHHHMKQTDVVVIGSGVGGLSCAALLARYGFDVTVCESHSIPGGAAHGFERQGFKFDSGPSLYSGLSYSPSVNPLRQVLDAVGVDLPCVTYDTWGCCLPEGDFDAAVGAEQFCEVLGRLRGEAAVAEWRRLQQVMTPLAQAAIALPPAALRWDIGAALTIGRFAPTLAKQSANFFKLTGPFSRIMDGVVHDPFISNWLNLLCFLLSGLPASGTNAAEVAFMFADWYRPGVALDYPIGGSGALVNALVEGFKKHGGELLLHTHVEQVLVEGNKAAGVRLGDGQEIRARRAVVSNASVWDTLKLLPEGAVSQKFRSQRQATPECDSFMHLHLGINAQGLPPDLACHYIVVNDWELEITAPQNVILVSIPSILDPSLAPQGKHVIHVYTPGNEPYTLWQGMDRRSQEYEQQKRSRAEVMWQAVERIIPDIRSRCEIQLVGTPLTHERFLRRYRGSYGPAISAASGLFPGHGTPLPGLMCCGDSTFPGIGLPAVAASGMIVANTLAPVSQHLAMLDRVGL
MGSDKIHHHHHHMLDQIKAHLLDSINDIVSSANQFVLHPEKDFSRQSQLTMKTMIQAILTMGGNTLAKELLDLDLPVSQSAFVQRRYQIKHQAFKTLFRDITSKIPISDNLPILAVDGSDVILPRNRFDKTTSFQTGPHHTPYNLIHINALYTLEQEIYHDLRIQDNREVDERAAFIDMMKTSSFKQALVIMDRGYESYNVMAHCQERNWSYIIRIRDGNHSMKSGFNLPDTPCFDEAFDLNICRKQTNDMKELYRDFPNQYHFLPHNASFDFLLNSSRKSDPLQFYELHFRMVRLEIKPGFFETLVTNTDYSPEKLKELYAYRWGIETSFRDLKYSIGLTHFHAKKKEGILQEIYARFINFNVCKWLTSHVAIKTSKLKQTYKICFSDAVYACRKFLRNKLTSFQLETYIAKHLSIIRPNRTFQRKIKSKAPVSFTYRVT
MAWVVNKQSTQEELANRFRALVEANEILQIPGAHDAMAALVARNTGFLALYLSGAAYTASKGLPDLGIVTSTEVAERARDLVRATDLPVLVDIDTGFGGVLNVARTAVEMVEAKVAAVQIEDQQLPKKCGHLNGKKLVTTEELVQKIKAIKEVAPSLYIVARTDARGVEGLDEAIERANAYVKAGADAIFPEALQSEEEFRLFNSKVNAPLLANMTEFGKTPYYSAEEFANMGFQMVIYPVTSLRVAAKAYENVFTLIKETGSQKDALSNMQTRSELYETISYHDFEELDTGIAKTVLSEDQ
MSLLEQLDKNIAASGGLIVSCQPVPGSPLDKPEIVAAMALAAEQAGAVAVRIEGIDNLRMTRSLVSVPIIGIIKRDLDESPVRITPFLDDVDALAQAGAAIIAVDGTARQRPVAVEALLARIHHHHLLAMADCSSVDDGLACQRLGADIIGTTMSGYTTPDTPEEPDLPLVKALHDAGCRVIAEGRYNSPALAAEAIRYGAWAVTVGSAITRLEHICGWYNDALKKAAS
PEMQSMIVAEINPAYRSLIADEPQIAPLLQDKRVEIVLDDGRKWLRRHPDEKFDLILMNTTWYWRAYSTNLLSAEFLKQVQSHLTPDGIVMFNTTHSPHAFATAVHSIPYAYRYGHMVVGSATPVVFPNKELLKQRLSRLIWPESGRHVFDSSTVDAAAQKVVSRMLIQMTEPSAGAEVITDDNMIVEYKYGRGI
MAHHHHHHSLKTKIIVIVGPTAVGKTALAIEVAKRFNGEVVSGDSQQVYRGLDIGTAKASPEEQAAVPHHLIDVREITESYSAFDFVSEAKMTIEDIHSRGKLAIIAGGTGLYIQSLLEGYHLGGETPHEEILAYRASLEPYSDEELAHLVEQAGLEIPQFNRRRAMRALEIAHFGQDLENQEILYEPLIICLDDERSQLYERINHRVDLMFEAGLLDEAKWLFDHSPNVQAAKGIGYKELFPYFRGEQTFEEARESLKQATRRFAKRQLTWFRNRMQVTFYQIGESGVQDRILSQIEEFLDDEG
MSLSGDLIDGLRDLNVLVVQPHDGSTEELLKQIGRIGCNATAVWPFPQSIPDGTDMIFMEITHPLDANAVRLLGVESVDAPTVVGIIAYENPSVLKGIIDLKIDTVLAKPIRPFGVLSHMLMARSVCLARRRDEEELQKLRRKIQAIQKIADAKFILMRHHSINETEAYKIIRSQAMAKRTSTLEIAQSVINAESILSGMAPHDLTARMQSQTEGHHHHHH
MKLMDVHVLFSGGKDSSLSAVILKKLGYNPHLITINFGVIPSYKLAEETAKILGFKHKVITLDRKIVEKAADMIIEHKYPGPAIQYVHKTVLEILADEYSILADGTRRDDRVPKLSYSEIQSLEMRKNIQYITPLMGFGYKTLRHLASEFFILEEIKSGT
